Experiments:
C5aR+Gα15/CHO [1] = assay: binding; two sites, site 1
C5aR+Gα15/CHO [2] = assay: binding; two sites, site 2
[3] = biological target: T1, C5aR transfected into CHEM-1 cells using the pHS vector (UniProt P21730 1-350); assay: binding
T1 chain: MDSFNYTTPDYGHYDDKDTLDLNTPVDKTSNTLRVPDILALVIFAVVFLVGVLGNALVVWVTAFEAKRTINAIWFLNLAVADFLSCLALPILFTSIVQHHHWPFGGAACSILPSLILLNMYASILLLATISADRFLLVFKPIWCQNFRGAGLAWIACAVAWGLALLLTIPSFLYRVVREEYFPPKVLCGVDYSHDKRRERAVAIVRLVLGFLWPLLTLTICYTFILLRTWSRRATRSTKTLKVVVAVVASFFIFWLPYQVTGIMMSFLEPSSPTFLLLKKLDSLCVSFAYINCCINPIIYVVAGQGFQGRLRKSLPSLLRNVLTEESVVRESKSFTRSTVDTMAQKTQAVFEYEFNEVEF

B1: C5a (ligand)
chain: TLQKKIEEIAAKYKHSVVKKCCYDGACVNNDETCEQRAARISLGPRCIKAFTECCVVASQLRANISHKDMQLGR
- Ki (C5aR+Gα15/CHO [1]): 0.6 nM
- Ki (C5aR+Gα15/CHO [2]): 34 nM
- Ki [3]: 0.5 nM

— patent US20060141569A1 (published 2006)
